Measured values from patent publication US9803019B2, “Carrier immunoglobulins and uses thereof” (Amgen Inc., priority 2010, dated 2017).
Like-named read-outs stand apart in the source and are kept apart here. Where no end group is shown, it is not given here.

T1: IL-17R (Homo sapiens, UniProt Q96F46)
T1 construct: endogenous in cells; host or cells: human foreskin fibroblasts (HFF)
T1 sequence (Q96F46 33-866): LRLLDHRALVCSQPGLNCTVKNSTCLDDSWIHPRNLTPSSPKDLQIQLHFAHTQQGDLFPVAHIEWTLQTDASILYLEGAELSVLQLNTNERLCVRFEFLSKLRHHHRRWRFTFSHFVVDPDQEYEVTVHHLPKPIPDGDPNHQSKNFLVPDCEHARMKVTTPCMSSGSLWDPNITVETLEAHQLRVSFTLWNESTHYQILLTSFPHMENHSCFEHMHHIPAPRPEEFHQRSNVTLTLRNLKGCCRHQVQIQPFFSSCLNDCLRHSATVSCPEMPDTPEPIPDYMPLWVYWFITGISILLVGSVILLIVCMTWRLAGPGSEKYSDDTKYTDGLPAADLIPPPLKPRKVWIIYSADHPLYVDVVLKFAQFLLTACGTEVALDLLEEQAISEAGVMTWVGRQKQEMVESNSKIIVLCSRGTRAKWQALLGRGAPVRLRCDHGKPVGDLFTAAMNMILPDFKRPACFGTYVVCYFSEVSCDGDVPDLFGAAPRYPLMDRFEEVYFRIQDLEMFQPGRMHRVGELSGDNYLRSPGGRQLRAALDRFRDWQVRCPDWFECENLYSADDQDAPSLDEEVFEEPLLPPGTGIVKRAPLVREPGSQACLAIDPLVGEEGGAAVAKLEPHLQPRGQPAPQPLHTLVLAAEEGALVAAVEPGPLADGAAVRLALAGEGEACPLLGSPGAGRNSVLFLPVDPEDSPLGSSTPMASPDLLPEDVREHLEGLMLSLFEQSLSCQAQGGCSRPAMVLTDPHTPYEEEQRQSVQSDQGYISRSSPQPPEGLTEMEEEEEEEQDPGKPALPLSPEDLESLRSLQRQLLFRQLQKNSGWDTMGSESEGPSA

T2: huIL-17R (Homo sapiens, UniProt Q96F46)
T2 construct: FLAG (the F of FpH); polyHis (the pH of FpH)
T2 sequence (Q96F46 with tags, fused parts or gaps): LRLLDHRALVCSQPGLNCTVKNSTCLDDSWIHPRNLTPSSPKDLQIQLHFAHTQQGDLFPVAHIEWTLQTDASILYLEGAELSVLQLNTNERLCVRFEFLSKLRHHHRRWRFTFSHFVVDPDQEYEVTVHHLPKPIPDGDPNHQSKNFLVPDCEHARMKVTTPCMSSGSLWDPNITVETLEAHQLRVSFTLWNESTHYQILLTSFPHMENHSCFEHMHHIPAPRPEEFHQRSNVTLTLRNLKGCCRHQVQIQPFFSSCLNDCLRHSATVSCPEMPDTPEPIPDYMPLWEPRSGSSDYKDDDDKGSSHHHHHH


What was measured:
Kv1.3 = biological target: T3, Kv1.3 (Homo sapiens, UniProt P22001); assay: Human whole blood assay: thapsigargin-induced IL-2 and IFN-γ secretion; format: cell-based; details: for IC50: human whole blood; for Potency Relative to ShK (WB, IL2): ratio of WB IL-2 IC50 to that of ShK(1-35)
T3 construct: endogenous in cells; host or cells: T cells in 50% human whole blood from multiple donors
Description: An ex vivo assay was employed to examine impact of toxin peptide analog Kv1.3 inhibitors on secretion of IL-2 and IFN-γ. […] In brief, 50% human whole blood was stimulated with thapsigargin to induce store depletion, calcium mobilization and cytokine secretion. […] After 48 hours at 37° C. and 5% CO2, conditioned medium was collected and the level of cytokine secretion was determined using a 4-spot electrochemiluminescent immunoassay from MesoScale Discovery. […] Kv1.3 is the major voltage-gated potassium channel present on T cells. Allowing for K^+ efflux, Kv1.3 provides the driving force for continued Ca^2+ influx which is necessary for the sustained elevation in intracellular calcium needed for efficient T cell activation and cytokine secretion. […] Therefore, we employed a bioassay whereby the bioactivity of Kv1.3 inhibitors is assessed by examining their ability to block thapsigargin-induced cytokine secretion from T cells in human whole blood.

IL-17R = biological target: T1, IL-17R; assay: Cell based activity assay: IL-17-induced GRO-α release from human foreskin fibroblasts (sandwich ELISA); details: HFF, 5 ng/ml IL-17; 0.1, 1 and 10 μM antibody (FIG. 3)
Description: The conditioned cell medium was then assessed for GRO-α levels using a GRO-α sandwich ELISA.
Interaction of IL-17 with the IL-17R on cells induces the production of various factors, including growth-related oncogene alpha (GRO-α), from these cells. A cell-based characterization assay was developed to measure GRO-α released using sandwich ELISA. In this ELISA, a GRO-α capture antibody is utilized to bind GRO-α, and then a biotinylated GRO-α detection antibody is used to detect the captured protein. Streptavidin conjugated to horseradish peroxidise (HRP) is then added to detect the amount of biotinylated GRO-α detection antibody bound. The amount of HRP bound is measured by evaluation of absorbance at 450 nm. An increase in absorbance at 450 nm is indicative of an increase in the amount of GRO-α produced. In this assay, human foreskin fibroblasts (HFF) are incubated with 5 ng/ml IL-17 and 0.1 μM, 1 μM and 10 μM of antibody samples. The conditioned cell medium is then harvested and processed for assessment of GRO-α levels using a GRO-α sandwich ELISA.

huIL-17R = biological target: T2, huIL-17R; assay: BIAcore solution equilibrium binding assay to huIL-17R (16429 immobilized); details: for IL-17R binding capability: 10 nM, 100 nM and 1000 nM antibody incubated with 10 nM IL-17R (FIG. 2A); for IL-17R binding activity: 30 μM antibody with 30 nM IL-17R (FIG. 2B)
Description: Antibody 16429 was immobilized to a CM5 sensor chip, and 10 nM of IL-17R in the absence of antibody was used to establish the 100% binding signal of […] that is free of antibody binding in solution. In FIG. 2A, 10 nM, 100 nM and 1000 nM of indicated antibody samples were incubated with the 10 nM IL-17R to determine antibody binding in solution. In FIG. 2B, 30,000 nM of the antibody samples were incubated with 30 nM IL-17R to determine antibody binding in solution. In FIGS. 2A-B, The decreased binding signal of IL-17R after the antibody incubation indicates the binding of the antibody to IL-17R in solution.
A reference antigen binding protein (e.g., Antibody 16429 for human IL-17R or Antibody 16449 for human TR2) is immobilized to a BIACore® 2000, research grade sensor chip CM5 surface according to manufacturer's instructions (BIACore, Inc., Piscataway, N.J.). Carboxyl groups on the sensor chip surfaces are activated by injecting 60 μL of a mixture containing 0.2 M N-ethyl-N′-(dimethylaminopropyl) carbodiimide (EDC) and 0.05 M N-hydroxysuccinimide (NHS). The reference antigen binding protein is diluted in 10 mM sodium acetate, pH 4.0 and injected over the activated chip surface at 30 μL/min for 6 minutes. Excess reactive groups on the surfaces are deactivated by injecting 60 μL of 1 M ethanolamine. The final immobilized level is typically approximately 6600 resonance units (RU). Soluble target antigen (e.g., 10 nM of soluble human IL-17R or 30 nM of soluble human TR2) in the absence of soluble antigen binding protein (e.g., antibody) is used to establish the 100% binding signal to the fixed reference antigen binding protein (e.g., the positive control antibody). The decreased binding signal of the target antigen after incubation of the test immunoglobulin indicates its level of binding to the target antigen in solution.
The lead candidates were then selected based on lack of binding to the IL-17R extracellular domain as determined by BIAcore analysis. Antibody 16429 is a human antibody that specifically binds to huIL-17R. A solution equilibrium binding assay was developed to assess the binding activity of a set of antibodies to huIL-17R. Antibody 16429 was immobilized to a BIACore® 2000, research grade sensor chip CM5 surface according to manufacturer's instructions (BIACore, Inc., Piscataway, N.J.). Briefly, carboxyl groups on the sensor chip surfaces were activated by injecting 60 μL of a mixture containing 0.2 M N-ethyl-N′-(dimethylaminopropyl) carbodiimide (EDC) and 0.05 M N-hydroxysuccinimide (NHS). Antibody 16429 was diluted in 10 mM sodium acetate, pH 4.0 and injected over the activated chip surface at 30 μL/min for 6 minutes. Excess reactive groups on the surfaces were deactivated by injecting 60 μL of 1 M ethanolamine. The final immobilized level was approximately 6600 resonance units (RU). As represented in FIG. 2A, 10 nM of IL-17R in the absence of soluble antibody was used to establish the 100% binding signal of IL-17R to the fixed 16429 antibody. To determine antibody binding in solution, 10 nM, 100 nM and 1000 nM of the antibody samples were incubated with the 10 nM IL-17R. The decreased binding signal of IL-17R after the antibody incubation indicates the binding of the antibody to IL-17R in solution.

T3 sequence (P22001 whole entry): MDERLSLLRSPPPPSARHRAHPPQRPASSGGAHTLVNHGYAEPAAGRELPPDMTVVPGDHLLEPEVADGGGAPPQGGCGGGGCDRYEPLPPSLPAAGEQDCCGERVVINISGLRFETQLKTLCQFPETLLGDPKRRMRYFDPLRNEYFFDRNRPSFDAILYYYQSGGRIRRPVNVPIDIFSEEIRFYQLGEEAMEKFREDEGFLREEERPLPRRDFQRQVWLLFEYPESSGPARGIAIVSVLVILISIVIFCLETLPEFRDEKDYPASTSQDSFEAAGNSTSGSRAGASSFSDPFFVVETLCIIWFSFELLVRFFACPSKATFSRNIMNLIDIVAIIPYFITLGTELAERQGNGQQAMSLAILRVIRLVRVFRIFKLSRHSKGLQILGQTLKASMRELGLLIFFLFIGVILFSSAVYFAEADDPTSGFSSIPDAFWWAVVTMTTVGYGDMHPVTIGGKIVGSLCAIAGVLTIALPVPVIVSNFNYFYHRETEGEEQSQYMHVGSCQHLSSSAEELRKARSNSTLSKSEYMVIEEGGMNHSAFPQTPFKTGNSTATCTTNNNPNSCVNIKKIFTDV

| Molecule | IC50 (Kv1.3; IFNg, read-out: WB (IFNg) IC50) [nM] | IC50 (Kv1.3; IL-2, read-out: WB (IL-2) IC50) [nM] | Potency Relative to ShK (WB, IL2) (Kv1.3) | blocking activity on IL-17-induced GRO-α production (IL-17R) | IL-17R binding capability (huIL-17R) | IL-17R binding activity (huIL-17R) |
| --- | --- | --- | --- | --- | --- | --- |
| 20 kDa-PEG-ShK: N-terminally 20 kDa PEGylated ShK, SEQ ID NO:380 | 0.84 | 0.38 |  |  |  |  |
| Bivalent Fc-L10-ShK[1-35] homodimer: IgG1 Fc peptibody, Example 1 of WO2008/088422 A2 (GGGGSGGGGSRSCIDTIPKSRCTAFQCKHSMKYRLSFCRKTCGTC; ends and bridges not checked; also: Fc fusion homodimer, Fc domain not in chain) | 0.32 | 0.386 | 5.76 |  |  |  |
| Bivalent Fc-L10-ShK[2-35] homodimer: IgG1 Fc peptibody, Example 2 of WO2008/088422 A2 (GGGGSGGGGSSCIDTIPKSRCTAFQCKHSMKYRLSFCRKTCGTC; ends and bridges not checked; also: Fc fusion homodimer, Fc domain not in chain) | 2.29 | 0.585 | 8.73 |  |  |  |
| 16438 (antibody, V domains shown) VH: QVQLVQSGAEVKKPGASVKVSCKASGYTFTRYGISWVRQAPGQGLEWMGWISTYSGNTNYAQKLQGRVTMTTDTSTSTAYMELRSLRSDDTAVYYCARRQQYFDYWGQGTLVTVSS VL: EIVMTQSPATLSVSPGERATLSCRASQSVSSNLAWFQQKPGQAPRLLIYDASTRATGVPARFSGSGSGTEFTLTISSLQSEDFAVYYCQQYDNWPLTFGGGTKVEIK |  |  |  | no significant blocking activity | substantial reduction in IL-17R binding capability | no significant IL-17R binding activity |
| 16441 (antibody, V domains shown) VH: QVQLVQSGAEVKKPGASVKVSCKASGYTFTRYGISWVRQAPGQGLEWMGWISTYSGNTNYAQKLQGRVTMTTDTSTSTAYMELRSLRSDDTAVYYCARAQQYFDYWGQGTLVTVSS VL: EIVMTQSPATLSVSPGERATLSCRASQSVSSNLAWFQQKPGQAPRLLIYDASTRATGVPARFSGSGSGTEFTLTISSLQSEDFAVYYCQQYDNWPLTFGGGTKVEIK |  |  |  | no significant blocking activity | substantial reduction in IL-17R binding capability | no significant IL-17R binding activity |
| 16440 (antibody, V domains shown) VH: QVQLVQSGAEVKKPGASVKVSCKASGYTFTRYGISWVRQAPGQGLEWMGWISTYSGNTNYAQKLQGRVTMTTDTSTSTAYMELRSLRSDDTAVYYCARAQQYFDYWGQGTLVTVSS VL: EIVMTQSPATLSVSPGERATLSCRASQSVSSNLAWFQQKPGQAPRPLIYDASTRATGVPARFSGSGSGTDFTLTISSLQSEDFAVYYCQQYDNWPLTFGGGTKVEIK |  |  |  | no significant blocking activity | substantial reduction in IL-17R binding capability | no significant IL-17R binding activity |
| 16439 (antibody, V domains shown) VH: QVQLVQSGAEVKKPGASVKVSCKASGYTFTRYGISWVRQAPGQGLEWMGWISTYSGNTNYAQKLQGRVTMTTDTSTSTAYMELRSLRSDDTAVYYCARRQQYFDYWGQGTLVTVSS VL: EIVMTQSPATLSVSPGERATLSCRASQSVSSNLAWFQQKPGQAPRLLIYDASTRATGVPARFSGSGSGTEFTLTISSLQSEDFAVYYCQQYDNAPLTFGGGTKVEIK |  |  |  | no significant blocking activity | substantial reduction in IL-17R binding capability | no significant IL-17R binding activity |
